Molecular target: Ktedonobacter racemifer acyl carrier protein (KrACP) (Ktedonobacter racemifer DSM 44963)
Experiment: SDS-PAGE

Work on “Ktedonobacter racemifer acyl carrier protein (KrACP) (natural protein)” yielded a stoichiometry N of 2.

From doi:10.1101/2020.05.18.102780
